Assays:
[1] = target: T1, cynomolgus monkey CCR8 (cynomolgus monkey, UniProt G7NYJ2 1-355); experiment: FACS, CHO-K1-CynoCCR8 cells
T1 construct: whole, on cells; also called CynoCCR8
In short: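 Anti-CCR8 antibodies titrated in 5-fold steps from 200 nM onto 1E6 cells/mL CHO-K1-CynoCCR8 in DPBS/2% FBS, 1 h at 4 °C. Bound antibody detected with 1:1000 secondary antibody, 40 min at 4 °C, then flow cytometry.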

[2] = target: T2, TSPAN4-FLAG (UniProt O14817 1-238, limits assumed); experiment: flow cytometry, HEK293-TSPAN4 cells
T2 construct: whole, on cells; order of protein and tag unknown; also called HEK293-TSPAN4; not shown: FLAG tag
T2 sequence (looked up): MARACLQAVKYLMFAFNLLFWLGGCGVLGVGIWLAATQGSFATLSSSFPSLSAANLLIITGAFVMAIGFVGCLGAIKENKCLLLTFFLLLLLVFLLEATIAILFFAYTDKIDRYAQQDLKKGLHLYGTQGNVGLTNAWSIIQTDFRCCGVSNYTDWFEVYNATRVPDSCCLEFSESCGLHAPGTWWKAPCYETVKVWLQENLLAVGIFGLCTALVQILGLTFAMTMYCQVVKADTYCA

[3] = target: T2, TSPAN4-FLAG; experiment: flow cytometry, transfected HEK293 cells
Excerpt: After that, HEK293 cells were transfected with commercial MMP16 (protein information can be found under Uniprot P51512), CD40LG (protein information can be found under Uniprot P29965), CD147 (protein information can be found under Uniprot P35612), TSPAN4 (protein information can be found under Uniprot 014817), and TSPAN12 (protein information can be found under Uniprot 095859) plasmids for further verification of the binding of PR005565, PR006275 and PR006276 to these proteins. […] However, the binding values of PR005565, PR006275 and PR006276 to MMP16, CD40LG, CD147, TSPAN4 and TSPAN12 after transfection of HEK293 cells were all consistent with the signal values of HEK293 cells themselves. Thus, PR005565, PR006275 and PR006276 had no non-specific binding to MMP16, CD40LG, CD147, TSPAN4 and TSPAN12 proteins (see Table 50).

[4] = target: T1, cynomolgus monkey CCR8; experiment: KinExA, cell line overexpressing monkey CCR8; monkey CCR8 cell line
Procedure: To 200 mg of PMMA hard beads was added 30 μg of Goat Anti-Human IgG Fc antibody, and the mixture was supplemented with a coating solution to 1.0 mL, with a buffer composition of 1×PBS, pH7.4, to ensure that the beads were completely suspended in the solution. After being spun at room temperature for 2 h, the beads were either allowed to settle naturally or centrifuged briefly at low speed, and the supernatant was removed. 1 mL of blocking buffer (1×PBS, pH7.4, containing 10 mg/mL BSA) was added to ensure that the beads were resuspended in the blocking solution, and the beads were spun at room temperature for 1 h. An appropriate concentration of PR005565, PR006155 or PR006166 was used as the 100% signal value, and PBS blank was used as the background value. The net signal values were detected using 0.5 μg/mL Alexa Fluor® 647 Goat Anti-Human IgG. The cell line overexpressing human or monkey CCR8 was collected by centrifugation at 1500 g for 5 min, washed 2 times with 2 PBS and centrifuged at 350 g. The cells were collected in a 1.5 mL centrifuge tube. 10 mL of 0.2 nM PR005565, PR006155 or PR006166 solution was prepared. The total cells were supplemented with 0.2 nM PR005565, PR006155 or PR006166 solution to 0.82 mL, and diluted in a 2-fold gradient with 0.2 nM PR005565, PR006155 or PR006166 as a buffer. […]

T1 sequence (G7NYJ2 entry or part of it): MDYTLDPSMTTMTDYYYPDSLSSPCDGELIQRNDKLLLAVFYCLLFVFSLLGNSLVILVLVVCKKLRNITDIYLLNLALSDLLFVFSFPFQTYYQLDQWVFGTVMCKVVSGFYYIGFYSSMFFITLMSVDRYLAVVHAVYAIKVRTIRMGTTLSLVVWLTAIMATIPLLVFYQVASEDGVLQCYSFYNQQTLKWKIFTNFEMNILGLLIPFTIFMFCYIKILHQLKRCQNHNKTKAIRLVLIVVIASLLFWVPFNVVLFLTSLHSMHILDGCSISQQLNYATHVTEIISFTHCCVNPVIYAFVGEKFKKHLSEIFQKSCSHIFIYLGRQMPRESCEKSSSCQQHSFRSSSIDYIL

B1: PR005565 (antibody, human IgG1, kappa)
heavy: not shown
light: DIVMTQSPLSLPVTLGQPASISCRSSKSLLHSNAKIYLYWFQQRPGQSPRLLIYRMSNLASGVPDRFSGSGSGTDFTLKISRVEAEDVGVYYCMQHLEYPLTFGQGTKLEIKRTVAAPSVFIFPPSDEQLKSGTASVVCLLNNFYPREAKVQWKVDNALQSGNSQESVTEQDSKDSTYSLSSTLTLSKADYEKHKVYACEVTHQGLSSPVTKSFNRGEC
notes: IgG1 constant region; same VH/VL as PR004666
[1]
  EC50: 0.76 nM
[2]
  MFI: 207
[3]
  binding result: no binding
[4]
  Kd: 0.177 nM

— US20240132603A1 (HARBOUR BIOMED US, published 2024)
